The results in this text go back to doi:10.1101/2024.03.17.584836 (bioRxiv, 2024).

By koff is commonly meant the first-order rate constant of dissociation. In general, stoichiometry N refers to a count of units in the complex or per binding partner.

Values joined by “and” are separate entries in the source; they are usually repeats but may differ in a detail not shown here. Equal values may be shown once. Read-outs that look alike come from different tables or passages of the source.

The target of experiment [1] is Nrx1β-Fc (neurexin-1β C-terminally fused to human Fc) (UniProt Q63373).
For experiment [2] the target is unchanged. The source holds these as a separate data set.
For experiment [3] the target is unchanged. This is another data set of the same source.
For experiment [4] the target is unchanged. The source holds these as a separate data set.
Experiment [5] deals with Nlg1-GFP, wild type, in HEK cell lysate (UniProt Q99K10). Nature of the experiment: single molecule pull-down with counting of photobleaching steps.
For experiment [6], the target named is Nlg1^E584A/L585A-GFP, in HEK cell lysate (UniProt Q99K10). Described as above.
The target of experiment [7] is Nrx1β-Fc (neurexin-1β C-terminally fused to human Fc) (UniProt Q63373). The experiment is described as follows: FRAP of soluble fluorescent protein bound to ligand-coated micropatterns.

The molecule “HA-Nlg1^E584A/L585A-GFP (-21), expressed in COS-7 cells (from UniProt Q99K10 46-843) (receptor)” showed an enrichment level E (fluorescence on ligand stripes / PEG lines) in experiment [1] of 2.5. In the case of “AP-Nlg1 (AP-tagged Nlg1, full length), expressed in COS-7 cells (from UniProt Q62765 46-843) (receptor)”, the koff of the reaction part of the PSD-95-GFP FRAP curves in experiment [2] is 0.005 s⁻¹ and 0.008 s⁻¹. As for “HA-Nlg1-GFP (-21), wild type, expressed in COS-7 cells (from UniProt Q99K10 46-843) (receptor)”, the enrichment level E (fluorescence on ligand stripes / PEG lines) in experiment [3] turned out to be 2.3. Besides, the koff in experiment [4] is 0.004 s⁻¹. Regarding “Nlg1-GFP, wild type, in HEK cell lysate (from UniProt Q99K10 46-843) (receptor)”, the stoichiometry N in experiment [5] came out at 2. In turn, “Nlg1^E584A/L585A-GFP, in HEK cell lysate (from UniProt Q99K10 46-843) (receptor)” displayed a percent in a monomeric form (1 photobleaching step) in experiment [6] of 55%.

B1: Nlg1-HaloTag-AF488 (purified dimeric Nlg1 C-terminally fused to Halo-tag, conjugated to AF488) (other)
chain: QKLDDVDPLVTTNFGKIRGIKKELNNEILGPVIQFLGVPYAAPPTGEHRFQPPEPPSPWSDIRNATQFAPVCPQNIIDGRLPEVMLPVWFTNNLDVVSSYVQDQSEDCLYLNIYVPTEDVKRISKECARKPGKKICRKGDIRDSGGPKPVMVYIHGGSYMEGTGNLYDGSVLASYGNVIVITVNYRLGVLGFLSTGDQAAKGNYGLLDLIQALRWTSENIGFFGGDPLRITVFGSGAGGSCVNLLTLSHYSEGNRWSNSTKGLFQRAIAQSGTALSSWAVSFQPAKYARILATKVGCNVSDTVELVECLQKKPYKELVDQDVQPARYHIAFGPVIDGDVIPDDPQILMEQGEFLNYDIMLGVNQGEGLKFVENIVDSDDGVSASDFDFAVSNFVDNLYGYPEGKDVLRETIKFMYTDWADRHNPETRRKTLLALFTDHQWVAPAVATADLHSNFGSPTYFYAFYHHCQTDQVPAWADAAHGDEVPYVLGIPMIGPTELFPCNFSKNDVMLSAVVMTYWTNFAKTGDPNQPVPQDTKFIHTKPNRFEEVAWTRYSQKDQLYLHIGLKPRVKEHYRANKVNLWLELVPHLHNLNDISQYTSTTTKVPSTDITLRPTRKNSTPVTSAFPTAKQDDPKQQPSPFSVDQRDYSTELS
modifications: HaloTag-Alexa488 ligand (Promega G1002) coupled to the HaloTag
Consider B1, for which the koff in experiment [7] was approximately 0.0015 s⁻¹.
